Experimental data as given in the DeepSol protein solubility set.

Assay: soluble on expression in E. coli; label from the status in PepcDB or PDB records

| Sequence | soluble on expression in E. coli |
| --- | --- |
| MGSDKIHHHHHHMIYLKIIRGFFSALREHPQSQSIPVIFVSALDETANQIQGLQGGAIDYLVKPVQPDILKLRLANLLATVNLQRDLQANYDNMLELSRLRDCVDELIHHDLKSPLSAISAMLQRLSQDKSCPKGWRSKLTAIHDLTMQSINTVNLSSEIFKIETGRFILKPERFSAHGLVKQVLHSMHVTFHHKQLIAFQFPDEDPNGQFDVLADETLTYSLLLNLIKNAFEASTMRTKVAIHLSIEQGNVVIQIENSGVVPEHIRPRFWDKYVTSQKEEGAGLGTYSACLLAKAQGGTTQLQVDDLQNKTIVTVCLPAAT | not soluble |
| MSLDKNLQTVIHDEHCGTLDFSLGDSRYSGELESGESYTVNFSVNPPEGSSIKVARAYIYWTWSKQGLDGIYPEFKSSLVHSGSSVLLLEEKRYTDTKGFVSRYDFFSGTDVYDLSEDISEAGNYSISLVNAGGDEKTFCVQGAGLLLVYENPDLPQTEYWINEGCDVLYAEYGIDPDMATTTTFFEGDICPENIENARLITVSPSGGYSSGTEARNRLFFNEKTGSIPVIGDIIKLLFAGGKSWKNVYQTNETVQIALDERSVGNYLDSNGNFASIQDNGDYLMATNAILLLEFKEPENPGKRYGEGHHHHHH | not soluble |
| MSLSDPTNNKPAPVLRESATFDRLTIQEIQRAAETGIYDIRGGGTKRKLPHFDDLLLLGASVSRYPLEGYREKCGTDVVLGNRFAKKPLYLKIPVTIAGMSFGALSANAKEALGRGATIAGTSTTTGDGGMTPEERGQSQHLVYQYLPSRYGMNPDDLRKADAIEIVLGQGAKPGGGGMLLGMKVTERVAGMRTLPVGVDQRSACRHPDWTGPDDLAIKIAEIREITDWEKPIYVKIGASRPYYDVKLAVKAGADVIVLDGMQGGTAATQEVFIEHVGIPILPAIPQAVQALQEMGMHRKVQLIVSGGIRNGADVAKAMALGADAVAIGTAALIALGDNHPRLDEELKKIGSAAGFYDDWQNGRDPAGITTQDPELSKRLDPVEGGRRLANYLRVLVLEAQTMARACGKSHLHNLDPEDLVALTVESAAMARVPLAGTSWIPGSGSKGIITITTDPNSSSVDKLAAALEHHHHHH | soluble |
| MRKFIFILLLIISSFSFCSNEISVDKSVEESVTKDYDQDGKYSSYERALRNAQGSIYVTLPEKRGYWYTILDRIKAEEDELMPDEKARIRRK | not soluble |
| GSHHHHHHGSHMDEKLLKTIAESKYLVALTGAGVSAESGIPTFRGKDGLWNRYRPEELANPQAFAKDPEKVWKWYAWRMEKVFNAQPNKAHQAFAELERLGVLKCLITQNVDDLHERAGSRNVIHLHGSLRVVRCTSCNNSFEVESAPKIPPLPKCDKCGSLLRPGVVWFGEMLPPDVLDRAMREVERADVIIVAGTSAVVQPAASLPLIVKQRGGAIIEINPDETPLTPIADYSLRGKAGEVMDELVRHVRKALS | soluble |
| MSVFMDLNIINSSDKNRLKHIIETAAHLGYSTVAINYVVEPLQKKQEIPNPQSISDLFDKFPVVQGKSSPIKVLNRLTIVASDASHFRPTNEYKKFDLVAVYPKTEKLFHAACMTFDVDIICIAVTEKQPFHFKRAPVNGAIDRGIFFETCYAAAIRDSITRRYTIANAICLMEICKGKNVIVSSGAERQLELRGPYDIANLGLVFSLSEGDAKAAVSTNCRSVLLHGETRATASGVIHTMKKPQILQKEEEETPAAKKARTELA | soluble |
| MNAEDVKGFFASRESLDMEQYLVLDYYLESVGDIETALAHFCSEQSTAQWKRVGVDEDFRLVHAAKVIDYEVIEELEQLSYPVKHSETGKIHACRVTIAHPHCNFGPKIPNLLTAVCGEGTYFTPGVPVVKLMDIHFPDTYLADFEGPKFGIEGLRDILNAHGRPIFFGVVKPNIGLSPGEFAEIAYQSWLGGLDIAKDDEMLADVTWSSIEERAAHLGKARRKAEAETGEPKIYLANITDEVDSLMEKHDVAVRNGANALLINALPVGLSAVRMLSNYTQVPLIGHFPFIASFSRMEKYGIHSKVMTKLQRLAGLDAVIMPGFGDRMMTPEEEVLENVIECTKPMGRIKPCLPVPGGSDSALTLQTVYEKVGNVDFGFVPGRGVFGHPMGPKAGAKSIRQAWEAIEQGISIETWAETHPELQAMVDQSLLKKQD | soluble |
| MREKLFWILKKYGVSDHIAKAFLEIPREEFLTKSYPLSYVYEDIVLVSYDDGEEYSTSSQPSLMALFMEWVGLDKGMRVLEIGGGTGYNAAVMSRVVGEKGLVVSVEYSRKICEIAKRNVERLGIENVIFVCGDGYYGVPEFSPYDVIFVTVGVDEVPETWFTQLKEGGRVIVPINLKLSRRQPAFLFKKKDPYLVGNYKLETRFITAGGNLGNLLERNRKLLREFPFNREILLVRSHIFVELVDLLTRRLTEIDGTFYYAGPNGVVEFLDDRMRIYGDAPEIENLLTQWESCGYRSFEYLMLHVGYNAFSHISCSI | soluble |
| MGSDKIHHHHHHMKIIHIVESSATGTLSMVCLIANRLAREGHDVHVIYSVRPDTPPALAAMFDTRVSLRHVQMKGAGLLRIAGRLRATLNEIGPDVVHLHSSFAGFLGRLSTLFALPKAAFFYSPHCISFMRRDISGVKRMAFIGLEWIACVRKCLYVACSESEGHAIRAWLRQPVVVVENAVSDTRSPQRSGDAERLADGPPCVVTVGGIRAQKNPELFARIAHGMRARGTRFVWIGDGDAAEKARLAEAGVEVTGWLPRDEVVRRLERADVYLSTSSWEGMPVSVIEAMLAGRPVIVSDCAGNVDVVRHLQTGLIYTTASDAIAWLERLAGDDALRRELARRASREARQRFGEERLFGELAPLYAASVAR | not soluble |
| MKSNKSKYKLVVDYVIDGINEGRLKKGAWIPSLNEFREMYGLSRDTVFSGIRELKSRGIIKSNPGVGYYIVSTRVPFKHNIFLLFNEFNEFKEDIYNSFMETVGNSATVDLYFHNYNRKVFETLVNNANHKYTTYIIMSGKFADIGPLLESLSGNVFLLDHYHSELKGKYSSVFQNFEKDTYEALVYGLSNLRKYKHIVMVQKDSKEPFERYDGLRAFCKEHGFTHECIGEIQGREIVKQEVFMVVNDRDLVNLLKQADRQQLVPGKDFGIISYNDTPLKEVLAGGITTLSTDFKLMGRTMASLINKKTIETIENPWNLNIRNSL | not soluble |
| AHHHHHHGSLSERMLKALNDQLNRELYSAYLYFAMAAYFEDLGLEGFANWMKAQAEEEIGHALRFYNYIYDRNGRVELDEIPKPPKEWESPLKAFEAAYEHEKFISKSIYELAALAEEEKDYSTRAFLEWFINEQVEEEASVKKILDKLKFAKDSPQILFMLDKELSARAPKLPGLLMQGGE | not soluble |
| MSSKPLYTILTVFNPIFIYFTKRDNLHTLRFKKDRAIKISEELFPDELCERCGRCCILHAYKTEDGIKTIYCEHLDPETKLCKVYKDRFKHRCLTVMEGILAGVFPKDCPYVKNLKNYEEPWFYRHLRDLEHHHHHH | not soluble |
| MTEPLILQPAKPADACVIWLHGLGADRYDFMPVAEALQESLLTTRFVLPQAPTRPVTINGGYEMPSWYDIKAMSPARSISLEELEVSAKMVTDLIEAQKRTGIDASRIFLAGFSQGGAVVFHTAFINWQGPLGGVIALSTYAPTFGDELELSASQQRIPALCLHGQYDDVVQNAMGRSAFEHLKSRGVTVTWQEYPMGHEVLPQEIHDIGAWLAARLG | soluble |
| MGSDKIHHHHHHMNFREEFKLLLRARYPLIYIPTYEEERVEAAIREEATNQGNRPVYTWDFVDGYQGNPNDVGFGRRNPLQALEFIEKLPASAPAVLILRDYHRFLDDVAIARKLRNLSRLLKSQPKNIVLLSPRIAIPDDLTEVLTVVEFPLPAAAEIKTEVERLLQSTGNSLSGKVLDDLVLSCQGLSMERIRRVLAKAIATHGELQPEDVDLVLEEKRQTIRQTQILDFYPATEQISDIGGLDNLKDWLIRRGGSFTDKARQYGLPHPRGLMLVGIQGTGKSLTAKAIAHHWHLPLLRLDVGRLFGGLVGESESRTRQMIQVAEALAPCILWIDEIDKAFAGLGSKGDAGTASRVFGTFINWLAEKSSPVFVVATANDIQALPPEMLRKGRFDEIFFVGLPTQEERKAIYDVHLSRLRPHNLKSYDIERLAYETPDFSGAEIEQTLIEAMHIGFSQNRDFATDDILEAASQIVPLARTAVEQIQQLQEWAAAGRARLASKHNPLSERLRRTT | not soluble |
| SLKEPRWRDPELPEVLAMLRHPVDPVKANAAAYLQHLCFENEGVKRRVRQLRGLPLLVALLDHPRAEVRRRACGALRNLSYGRDTDNKAAIRDCGGVPALVRLLRAARDNEVRELVTGTLWNLSSYEPLKMVIIDHGLQTLTHEVIVPHSGWEREPNEDSKPRDAEWTTVFKNTSGCLRNVSSDGAEARRRLRECEGLVDALLHALQSAVGRKDTDNKSVENCVCIMRNLSYHVHKEVPGADRYQEAEPGPLGSAVGSQRRRRDDASCFGGKKAKEEWFHQGKKDGEMDRNFDTLDLPKRTEAAKGFELLYQPEVVRLYLSLLTESRNFNTLEAAAGALQNLSAGNWMWATYIRATVRKERGLPVLVELLQSETDKVVRAVAIALRNLSLDRRNKDLIGSYAMAELVRNVRNAQAPPRPGACLEEDTVVAVLNTIHEIVSDSLDNARSLLQARGVPALVALVASSQSVREAKAASHVLQTVWSYKELRGTLQKDGWTKARFQSAAATAKGPK | soluble |
| MAHHHHHHMRKAVRALQRRASQQAREVAVAANDMDGETATTQRPSFSLFWVQLTQAKVDVVLPPAQPPTPSAEVEAEEESETAERAAHAGHGGSRDTASAHTAAQFRRVHDTNRRVLRIIEACPDETLIVVLAGRCDGEAGGNHFSRAQGTCFAFVKDSSAPGPRPEELTKLTDENNVSALPRASAGGAAVDNIPLQDASALSTAAVPHSVDRETAMVEHTPLACQQQ | soluble |
| MGHHHHHHSHMKWASENGASVEGFEMVNFKEEGFGLRATRDIKAEELFLWVPRKLLMTVESAKNSVLGPLYSQDRILQAMGNIALAFHLLCERASPNSFWQPYIQTLPSEYDTPLYFEEDEVRYLQSTQAIHDVFSQYKNTARQYAYFYKVIQTHPHANKLPLKDSFTYEDYRWAVSSVMTRQNQIPTEDGSRVTLALIPLWDMCNHTNGLTPEDSFALAVASA | not soluble |
| MAHHHHHHMACDFELPLFAAPCSEVLSTQMSVVDGKMAEKSDKAKRTARASACMIRKGFFSHFPQAILTSPESGIKTAPHPWSNASLMMAADAFSVGLMLRLRLFSIICRNPSPKPTAAGGRFAGYVFCTIPRLSADNCRRTALLKKSWSYKRMPKMAAKYKKRDAVTSISAMVKELSAGMARTDRRNFSLRDTVW | not soluble |
| MSLNYEMFAKLYDRLMADAPYDRWAKLVEEEIRKAIFSDVNLLDIGCGTGRLLKILSERGYACTGVDQSANMLVIAREALAQKGVQVPLFQQDMTEFYTGETYQVITIFCDSLNYVITEEGVVQTFQRVFDHLDQQGVFMFDVHSPTKLRNHFIGKTFADADEEISYIWQSFAGEAEQSVEHELTFFVRNETGSYDRYEELHIQRGYPIERYVDWLKEAGFSRIDITADFTNEAPTENSERIFFKAYKKEGHHHHHH | soluble |
| MGSDKIHHHHHHMDTRKNVSGAERKIWSLIRDCSGKLEGVTETSVLEVLLIVSRVLGIRKEDLFLKDLGVSPTEEKRILELVEKRASGYPLHYILGEKEFMGLSFLVEEGVFVPRPETEELVELALELIRKYGIKTVADIGTGSGAIGVSVAKFSDAIVFATDVSSKAVEIARKNAERHGVSDRFFVRKGEFLEPFKEKFASIEMILSNPPYVKSSAHLPKDVLFEPPEALFGGEDGLDFYREFFGRYDTSGKIVLMEIGEDQVEELKKIVSDTVFLKDSAGKYRFLLLNRRSS | soluble |
| NGSQQQILSNISSMGTNTIDVRPGKGFGDRRSGRVKTLTADDAKSLESLPFVDSVTPSLSNSLTVRYANQDATASVEGVGEDYFRVRGYEIAKGQFWDEESVNSLAQEAVIDDNTRKEMFADRNP | not soluble |
